Target: InlB (recombinant His-tagged InlB321 peptide, aa 36-321 of internalin B) (Listeria monocytogenes)
Experiment: FACS competition; InlB pre-incubated with soluble MET peptide at 1:1 molar ratio

## MET peptide (soluble peptide derived from the extracellular, ligand-binding domain of MET; YCP2247 SPEED BioSystems) (from UniProt P08581 25-932) (receptor)
  percent reduction of InlB binding to H1993 cells: 50%

Reference: US20160331840A1
